Measured values reported in US20070149453A1.

T1: IL-1 Type I Receptor peptide (Dabcyl-T-H-G-I-D-A-A-Y-I-Q-Edans)
T1 chain: THGIDAAYIQ

T2: IL-1 Type II Receptor peptide (Dabcyl-Q-T-K-R-T-T-V-K-E-A-Edans)
T2 chain: QTKRTTVKEA

T3: IL-6 Receptor peptide (Dabcyl-A-N-A-T-S-L-P-Edans)
T3 chain: ANATSLP

T4: p55 TNF Receptor peptide (Dabcyl-N-V-K-G-T-E-D-S-G-Edans)
T4 chain: NVKGTEDSG

T5: p75 TNF Receptor peptide (Dabcyl-C-T-S-T-S-P-T-R-Edans)
T5 chain: CTSTSPTR


Experiments:
[1] = biological target: T1, IL-1 Type I Receptor peptide …
[2] = biological target: T2, IL-1 Type II Receptor peptide …
[3] = biological target: T3, IL-6 Receptor peptide …
[4] = biological target: T4, p55 TNF Receptor peptide …
[5] = biological target: T5, p75 TNF Receptor peptide …
[6] = biological target: mouse p55 TNF receptor (mouse) (UniProt P25118); test: cell-based or functional assay
Sequence of mouse p55 TNF receptor (mouse) (P25118 30-454 limits assumed): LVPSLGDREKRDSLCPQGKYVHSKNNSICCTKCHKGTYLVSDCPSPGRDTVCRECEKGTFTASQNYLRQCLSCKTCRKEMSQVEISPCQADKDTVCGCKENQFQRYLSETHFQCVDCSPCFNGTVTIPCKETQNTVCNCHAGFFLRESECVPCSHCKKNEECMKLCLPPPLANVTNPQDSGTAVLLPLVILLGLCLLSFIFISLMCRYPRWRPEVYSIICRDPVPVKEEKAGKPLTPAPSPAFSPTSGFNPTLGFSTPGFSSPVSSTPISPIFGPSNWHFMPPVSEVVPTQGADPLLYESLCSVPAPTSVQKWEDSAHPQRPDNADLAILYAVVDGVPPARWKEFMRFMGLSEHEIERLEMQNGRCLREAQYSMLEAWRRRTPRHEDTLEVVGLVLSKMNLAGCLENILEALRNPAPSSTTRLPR

[7] = biological target: mouse p75 TNF receptor (mouse) (UniProt P25119); test: cell-based or functional assay
Sequence of mouse p75 TNF receptor (mouse) (P25119 23-474 limits assumed): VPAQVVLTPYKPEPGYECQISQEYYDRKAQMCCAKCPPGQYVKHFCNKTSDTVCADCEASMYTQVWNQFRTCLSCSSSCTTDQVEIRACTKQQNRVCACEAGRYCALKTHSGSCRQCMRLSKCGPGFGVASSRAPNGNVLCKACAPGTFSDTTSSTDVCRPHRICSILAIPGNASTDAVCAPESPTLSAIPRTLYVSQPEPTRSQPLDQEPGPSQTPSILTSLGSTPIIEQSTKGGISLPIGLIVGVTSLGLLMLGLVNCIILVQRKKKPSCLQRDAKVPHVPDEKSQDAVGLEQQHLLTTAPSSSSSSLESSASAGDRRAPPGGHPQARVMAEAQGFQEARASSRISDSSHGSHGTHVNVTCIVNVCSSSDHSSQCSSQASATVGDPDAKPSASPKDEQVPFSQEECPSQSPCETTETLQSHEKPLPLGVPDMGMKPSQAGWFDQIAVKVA

Row | circulating TNF receptor in serum of Balb/c mice after s.c. MP8 (ELISA) [6] | circulating TNF receptor in serum of Balb/c mice after s.c. MP8 (ELISA) [7] | Binder | relative peptide cleavage activity (FRET assay) [1] | relative peptide cleavage activity (FRET assay) [2] | peptide cleavage (FRET assay, Zn++/Ca++ dependent) [3] | peptide cleavage (FRET assay, Zn++/Ca++ dependent) [4] | peptide cleavage (FRET assay, Zn++/Ca++ dependent) [5] | peptide cleavage (FRET assay) [4] | peptide cleavage (FRET assay) [5]
1 | 100 fold | 100 fold | MP8 (original clone, core MP8, N-terminal His tag and thrombin site) (protein) WIQRIRHEGNSTVYEWRTGTEPSVVERPHLEELPEQVAEDAIDWGDFGVEAVSEGTDSGISAEAAGIDWGIFPESDSKDPGGDGIDWGDDAVALQITVLEAGTQAPEGVARGPDALTLLEYTETRNQFLDELMELEIFLAQRAVELSEEADVLSVSQFQLAPAILQGQTKEKMVTMVSVLEDLIGKLTSLQLQHLFMILASPRYVDRVTEFLQQKLKQSQLLALKKELMVQKQQEALEEQAALEPKLDLLLEKTKELQKLIEADISKRYSGRPVNLMGTSL | Clone MP8 shows specificity for several receptors involved in the inflammatory pathway (TNF-R p55 and p75 isoforms, IL-6 receptor and IL-1 receptors) in comparison with control substrates | Clone MP8 shows specificity for several receptors involved in the inflammatory pathway (TNF-R p55 and p75 isoforms, IL-6 receptor and IL-1 receptors) in comparison with control substrates | MP8 also cleaves the IL-6 receptor peptide with high activity | MP8 cleaves the peptides from both the p55 and p75 TNF receptors (TNF-R1 and TNF-R2) | MP8 cleaves the peptides from both the p55 and p75 TNF receptors (TNF-R1 and TNF-R2) | – | –
2 | – | – | MP8-FL2 (full length MP8 without His tag, from E. coli strain MP820) (protein) MCVHPGACLPHVGVSWAEFPGHFSVELSSLLVRNVNYEIPSLKKQIAKCQQLQQEYSRKEEECQAGAAEMREQFYHSCKQYGITGENVRGELLALVKDLPSQLAEIGAAAQQSLGEAIDVYQASVGFVCESPTEQVLPMLRFVQKRGNSTVYEWRTGTEPSVVERPHLEELPEQVAEDAIDWGDFGVEAVSEGTDSGISAEAAGIDWGIFPESDSKDPGGDGIDWGDDAVALQITVLEAGTQAPEGVARGPDALTLLEYTETRNQFLDELMELEIFLAQRAVELSEEADVLSVSQFQLAPAILQGQTKEKMVTMVSVLEDLIGKLTSLQLQHLFMILASPRYVDRVTEFLQQKLKQSQLLALKKELMVQKQQEALEEQAALEPKLDLLLEKTKELQKLIEADISKRYSGRPVNLMGTSL | – | – | – | – | – | The same preparation of MP8-FL2 caused cleavage of both R1 (Dabcyl-N-V-K-G-T-E-D-S-G-Edans; SEQ. ID NO:71) and R2 | The same preparation of MP8-FL2 caused cleavage of both R1 ... and R2 (Dabcyl-C-T-S-T-S-P-T-R-Edans; SEQ. ID NO:73)
